From PMC2174279 come the findings set out here.

The target of test [1] is Bee1p (1-633) (S. cerevisiae). Nature of the test: two-hybrid.
Test [2] deals with Bee1p (1-165) (S. cerevisiae). Nature of the test: two-hybrid.
The target in another test is Bee1p-HA (S. cerevisiae). Nature of the test: co-IP.

B1: Myo5p-SH3-AD (1020-1219) (domain or fragment)
chain: NKAATRRSVPNPASTLTASQSNARPSPPTAATRATPAATPAAAAMGSGRQANIPPPPPPPPPSSKPKEPMFEAAYDFPGSGSPSELPLKKGDVIYITREEPSGWSLGKLLDGSKEGWVPTAYMKPHSGNNNIPTPPQNRDVPKPVLNSVQHDNTSANVIPAAAQASLGDGLANALAARANKMRLESDDEEANEDEEEDDW
As for B1, the LacZ expression (two-hybrid) in test [1] is 398 Miller units.

B2: Vrp1p (195-817) (domain or fragment)
chain: HMPSVRPAHRSHQRKSSNISLPSVSAPPLPSASLPTHVSNPPQAPPPPPTPTIGLDSKNIKPTDNAVSPPSSEVPAGGLPFLAEINARRSERGAVEGVSSTKIQTENHKSPSQPPLPSSAPPIPTSHAPPLPPTAPPPPSLPNVTSAPKKATSAPAPPPPPLPAAMSSASTNSVKATPVPPTLAPPLPNTTSVPPNKASSMPAPPPPPPPPPGAFSTSSALSASSIPLAPLPPPPPPSVATSVPSAPPPPPTLTTNKPSASSKQSKISSSSSSSAVTPGGPLPFLAEIQKKRDDRFVVGGDTGYTTQDKQEDVIGSSKDDNVRPSPISPSINPPKQSSQNGMSFLDEIESKLHKQTSSNAFNAPPPHTDAMAPPLPPSAPPPPITSLPTPTASGDDHTNDKSETVLGMKKAKAPALPGHVPPPPVPPVLSDDSKNNVPAASLLHDVLPSSNLEKPPSPPVAAAPPLPTFSAPSLPQQSVSTSIPSPPPVAPTLSVRTETESISKNPTKSPPPPPSPSTMDTGTSNSPSKNLKQRLFSTGGSTLQHKHNTHTNQPDVDVGRYTIGGSNSIVGAKSGNERIVIDDSRFKWTNVSQMPKPRPFQNKTKLYPSGKGSSVPLDLTLFT
Turning to B2, the LacZ expression (two-hybrid) in test [2] and in test [1] was 144 Miller units in each case.

B3: Vrp1p-Myc (natural protein)
chain: MAGAPAPPPPPPPPALGGSAPKPAKSVMQGRDALLGDIRKGMKLKKAETNDRSAPIVGGGVVSSASGSSGTVSSKGPSMSAPPIPGMGAPQLGDILAGGIPKLKHINNNASTKPSPSASAPPIPGAVPSVAAPPIPNAPLSPAPAVPSIPSSSAPPIPDIPSSAAPPIPIVPSSPAPPLPLSGASAPKVPQNRPHMPSVRPAHRSHQRKSSNISLPSVSAPPLPSASLPTHVSNPPQAPPPPPTPTIGLDSKNIKPTDNAVSPPSSEVPAGGLPFLAEINARRSERGAVEGVSSTKIQTENHKSPSQPPLPSSAPPIPTSHAPPLPPTAPPPPSLPNVTSAPKKATSAPAPPPPPLPAAMSSASTNSVKATPVPPTLAPPLPNTTSVPPNKASSMPAPPPPPPPPPGAFSTSSALSASSIPLAPLPPPPPPSVATSVPSAPPPPPTLTTNKPSASSKQSKISSSSSSSAVTPGGPLPFLAEIQKKRDDRFVVGGDTGYTTQDKQEDVIGSSKDDNVRPSPISPSINPPKQSSQNGMSFLDEIESKLHKQTSSNAFNAPPPHTDAMAPPLPPSAPPPPITSLPTPTASGDDHTNDKSETVLGMKKAKAPALPGHVPPPPVPPVLSDDSKNNVPAASLLHDVLPSSNLEKPPSPPVAAAPPLPTFSAPSLPQQSVSTSIPSPPPVAPTLSVRTETESISKNPTKSPPPPPSPSTMDTGTSNSPSKNLKQRLFSTGGSTLQHKHNTHTNQPDVDVGRYTIGGSNSIVGAKSGNERIVIDDSRFKWTNVSQMPKPRPFQNKTKLYPSGKGSSVPLDLTLFT
Molecule B3 returned a percent coimmunoprecipitated with Bee1p-HA (S. cerevisiae) of 5%.
